# T1: CLDN6 cytoplasmic domain peptide SHYMARYSTSAPAIS (SEQ ID NO: 99) (human)
# T1 peptide: SHYMARYSTSAPAIS
# T2: CLDN3-GFP, expressed in HEK293 T cells (UniProt O15551 1-220)
# T2 construct: whole, on cells; also called Claudin3; HEK293 CLDN3; not shown: GFP fused to CLDN3
# T2 sequence (looked up): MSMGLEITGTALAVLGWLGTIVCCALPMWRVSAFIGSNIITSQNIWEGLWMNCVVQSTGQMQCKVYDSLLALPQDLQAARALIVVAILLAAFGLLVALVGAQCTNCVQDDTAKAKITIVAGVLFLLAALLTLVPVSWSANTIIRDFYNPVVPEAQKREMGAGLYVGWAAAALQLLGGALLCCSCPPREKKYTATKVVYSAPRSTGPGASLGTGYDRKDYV
# T3: CLDN4-GFP, expressed in HEK293 T cells (UniProt O14493 1-209)
# T3 construct: whole, on cells; also called Claudin4; HEK293 4; not shown: GFP fused to CLDN4
# T3 sequence (looked up): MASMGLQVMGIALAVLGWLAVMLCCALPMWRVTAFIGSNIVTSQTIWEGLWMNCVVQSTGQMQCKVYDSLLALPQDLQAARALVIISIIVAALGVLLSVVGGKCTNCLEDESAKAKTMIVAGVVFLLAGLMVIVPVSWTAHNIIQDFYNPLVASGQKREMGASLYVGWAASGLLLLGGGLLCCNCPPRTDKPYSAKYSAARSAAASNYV
# T4: CLDN9-GFP, expressed in HEK293 T cells (UniProt O95484 1-217)
# T4 construct: whole, on cells; also called Claudin9; HEK293 9; not shown: GFP fused to CLDN9
# T4 sequence (looked up): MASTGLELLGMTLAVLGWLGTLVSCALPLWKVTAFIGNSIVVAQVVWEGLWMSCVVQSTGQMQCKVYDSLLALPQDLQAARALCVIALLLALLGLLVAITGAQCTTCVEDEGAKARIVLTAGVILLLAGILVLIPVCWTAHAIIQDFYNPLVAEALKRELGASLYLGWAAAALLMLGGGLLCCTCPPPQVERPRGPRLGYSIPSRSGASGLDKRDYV
# B1: Claudin-6 (CLDN6) antibody 3D07 (antibody, V domains shown)
# VH: EVQLQQFGAELVKPGASVKISCRTSGYTFTDYNIDWVRQSHGKSLEWIGDINPNSENTDYNQKFKGKATLTVDKSSSTAYLELRSLTSEDTAVYYCARSPYGNYVGYLMDYWGQGTSVTVSS
# VL: DVVLTQTPLSLPVNIGDQASISCRSTKSLLNSDGFTYLDWYLQKPGQSPQVLIYLISNRFSGVPDRFSGNGSGTDFTLKISRVEAEDLGVYYCFQSNYIPLTFGAGTKLELK
# notes: Mouse hybridoma clone; Detection was with goat anti-mouse IgG; also called clone 3D07
# B2: Claudin-6 (CLDN6) antibody 3H11 (antibody, V domains shown)
# VH: EIQLQQSGAELVRPGALVRLSCKPSGFNIKDYYIHWVKERPEQGLEWIGWIDPDNGDTLYDSKFQGKASLTADTSSNTAYLQLTSLTSEDTAVYYCATYRYSFAYWGQGTLVTVSA
# VL: DIQMNQSPSSLSASLGDTITITCHASQNINVWLNWYQQKPGNIPKLLIFKASNLYTGVPSRFSGGGSGTGFTLTISSLQPEDIATYYCQQGQTYPLTFGGGTKLEIK
# notes: Mouse hybridoma clone; Detection was with goat anti-mouse IgG; also called clone 3H11
# Tests used:
# [1] = target: T1, CLDN6 cytoplasmic domain peptide …; assay: peptide epitope mapping (FIG 2)
# [2] = target: T2, CLDN3-GFP, expressed in HEK293 T cells; assay: immunohistochemistry on FFPE engineered HEK293 cells
# [3] = target: T3, CLDN4-GFP, expressed in HEK293 T cells; assay: as above
# [4] = target: T4, CLDN9-GFP, expressed in HEK293 T cells; assay: as above
binder,measurement,setting,value
B1,binding result,[1],binds
same,binding result,[2],no binding
same,binding result,[3],no binding
same,binding result,[4],no binding
B2,binding result,[2],no binding
same,binding result,[3],no binding
same,binding result,[4],no binding

# Reference: patent EP4569003A2 (dated 2026)
